Consider six molecules from patent publication US6699677B1, “Tethered ligands and methods of use” (ChemoCentryx, Inc., priority 1999, dated 2004).

For one assay, the target named is T1, CXCR4 (Homo sapiens, UniProt P61073).
T1 construct: host or cells: mouse myeloma NSO
Kind of assay: Binding of CXCR4-NSO cells to immobilized stalkokines. On the procedure:
In one set of experiments, five 8 well chamber slides (Lab-Tek II, Nalge Nunc International, Rochester, N.Y.), 250 ul of 10 ug/ml anti-his antibody (R&D Systems, Minneapolis, Minn.) in PBS was added to each well and incubated at room temperature overnight (typically 16 hours). Following, the liquid in each well was aspirated and washed once for approximately 5 minutes with 500 ul of PBS. The wells were then “blocked” (blocked for any additional protein binding sites) with the addition of 250 ul of blocking solution (2% fetal bovine serum, 0.5% BSA in PBS) and incubation for 1 hour at room temp (e.g., 20° C.). The liquid in each well was aspirated and 250 ul of supernatant containing the chemokine-stalk-immobilization domain fusion proteins (SDF1a-FRAC, finetaxin-FRAC, CCL27-FRAC, 1309-FRAC, MIP3a-FRAC, ELC-FRAC, SLC-FRAC, MDC-FRAC, TARC-FRAC, or BRAK-FRAC) or the control supernatant was added to two wells. Each slide contained two wells with control supernatant (from mock-transfected cells) and two wells with the positive control SDF1a (which binds the ubiquitous chemokine receptor CXCR4). The four other wells were for experimental samples. The supernatants were incubated for one hour at room temperature (typically 20° C.), then incubated for an additional hour at 37° C. […] The slide was then ready for addition of cells for assay. […]

Assay [1] has as its target T2, CCR10 (Homo sapiens, UniProt Q9NPB9).
T2 construct: Full length CCR10 expression constructs were made in pIRESpuro expression vector; expressed in transfected cells; HEK293-CCR10)
T2 sequence (Q9NPB9 1-350): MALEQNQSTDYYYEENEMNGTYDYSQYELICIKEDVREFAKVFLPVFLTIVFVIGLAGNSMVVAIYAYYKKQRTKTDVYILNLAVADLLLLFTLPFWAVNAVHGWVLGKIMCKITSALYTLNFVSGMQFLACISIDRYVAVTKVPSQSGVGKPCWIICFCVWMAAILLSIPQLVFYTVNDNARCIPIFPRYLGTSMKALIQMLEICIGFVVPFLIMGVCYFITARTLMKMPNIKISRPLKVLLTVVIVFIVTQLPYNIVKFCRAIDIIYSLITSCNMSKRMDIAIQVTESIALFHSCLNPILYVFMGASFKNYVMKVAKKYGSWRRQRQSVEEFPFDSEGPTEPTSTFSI
The experiment in a line: Adhesion of HEK293-CCR10 cells to immobilized stalkokines, with or without soluble chemokine competitors. The format is binding. Conditions: stalkokine immobilized via anti-His anchoring antibody, 500,000 cells, 1.5 hrs at RT. On the procedure: To determine ligand binding to CCR10, HEK293-CCR10 cells were used to interrogate chemokine “stalkokines” (SK), i.e., molecules in which discrete chemokine domains were engineered to be tethered to the end of an extended stalk structure. Stalkokines were interrogated using 8-well chamber slides coated first with anti-His anchoring antibody (10 ug/ml in PBS overnight at RT), which were washed and ‘blocked’ (2% FBS/0.5% BSA in PBS); treated with 250 ul of HEK293 cell stalkokine supernatants (1 hr at 37C), and incubated with 500,000 HEK293-CCR10 transfectants (1.5 hrs at RT). Inhibition of adhesion by competition with soluble chemokines was done by incubating cells with 5-10 ug/ml of recombinant chemokines. In all cases, nonadherent cells were removed by washing in PBS; remaining adherent cells were fixed with 1% glutaraldehyde, photoimaged and counted. As a primary screen, this adhesion would reveal putative receptor-ligand interactions.

Assay [2] deals with T3, CCR4 (Homo sapiens, UniProt P51679).
T3 sequence (P51679 1-360): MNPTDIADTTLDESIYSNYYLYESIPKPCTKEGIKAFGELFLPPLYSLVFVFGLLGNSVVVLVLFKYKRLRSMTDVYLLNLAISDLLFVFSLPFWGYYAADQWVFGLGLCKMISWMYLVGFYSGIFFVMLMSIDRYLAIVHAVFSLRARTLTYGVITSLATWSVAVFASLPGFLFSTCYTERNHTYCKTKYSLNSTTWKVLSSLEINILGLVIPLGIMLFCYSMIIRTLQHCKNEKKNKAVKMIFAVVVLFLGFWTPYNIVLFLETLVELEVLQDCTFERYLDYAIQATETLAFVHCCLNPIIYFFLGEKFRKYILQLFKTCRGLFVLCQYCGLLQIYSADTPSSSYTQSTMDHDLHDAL
The experiment in a line: Calcium mobilization in INDO-1AM loaded CEM cells expressing CCR4. The format is cell-based. Set-up: endogenous in cells; host or cells: CEM cells. Conditions: fusion protein supernatant added at 80 sec. As for the experimental part:
Briefly, CEM cells that express CCR4 were placed in a fluorimeter and monitored over time for changes in fluorescence. […] TARC-Fractalkine or MDC-Fractalkine (fusion protein supernatants), or control supernatants, were added at the following times: experiment 1, control supernatant added at 50 sec, TARK-FRAC at 80 sec; experiment 2, control supernatant at 50 sec and MDC-FRAC at 80 sec.

In assay [3] the target is T3, CCR4. The experiment in a line: Binding of CCR4-NSO cells to immobilized stalkokines and competition by soluble chemokine. Also on record: host or cells: mouse myeloma NSO. On the procedure: Following, the liquid in each well was aspirated and washed once for approximately 5 minutes with 500 ul of PBS. The wells were then “blocked” (blocked for any additional protein binding sites) with the addition of 250 ul of blocking solution (2% fetal bovine serum, 0.5% BSA in PBS) and incubation for 1 hour at room temp (e.g., 20° C.). […] Each slide contained two wells with control supernatant (from mock-transfected cells) and two wells with the positive control SDF1a (which binds the ubiquitous chemokine receptor CXCR4). The four other wells were for experimental samples. The supernatants were incubated for one hour at room temperature (typically 20° C.), then incubated for an additional hour at 37° C. The supernatants were aspirated off, and each well was washed once for 5 minutes with 500 ul of PBS. The slide was then ready for addition of cells for assay.
Several types of cells were used in binding experiments to stalkokines of the invention, including transfected mouse myeloma NSO cells containing a mammalian expression vector driving expression of the receptor of interest, e.g., CCR1, CCR4, CCR6, CCR7, CCR8, CXCR4, CMV US28 (gift of R&D Systems (Minneapolis, Minn.)).
In an experiment, CCR4-NSO cells were used to test binding competition. Harvested CCR4 NSO cells were resuspended at 2×10^6 cells per ml in PBS. […] 250 ul of cells that were not pre-treated with soluble chemokine were added to additional wells. The slides were incubated for 1.5 hours at room temp, then the supernatant gently aspirated. The chamber portion of the slide was removed (using the apparatus provided by the supplier) and the slide was washed by gentle immersion into a petri dish containing PBS to a depth of 1cm. This was repeated 3 times in total, and the slide was immersed in a 1% glutaraldehyde solution (in PBS) for 5 minutes at room temperature. The cells were inspected and enumerated visually by microscopy.

The target in assay [4] is T3, CCR4. Kind of assay: Displacement of radiolabeled MDC or TARC tracer from CEM cells expressing CCR4. In kind it is binding. Also on record: endogenous in cells; host or cells: CEM cells. The conditions noted are these: supernatants with soluble stalkokine, compared with control supernatant. As for the experimental part: Briefly, CEM cells we added to radiolabeled chemokine “tracer” (MDC or TARC) in the presence of competitor molecules such as supernatants expressing the soluble MDC-FRAC (a stalkokine with a fractalkine stalk and an MDC ligand domain) or TARC-FRAC (a stalkokine with a fractalkine stalk and an TARC ligand domain). The cells and tracer were incubated and harvested by filtration, capturing the bound tracer. The material was then counted. “Total” is the amount of tracer bound with no competition.

Assay [5] addresses T2, CCR10. Kind of assay: Spectrum of ligands that bind to CCR10. The format is binding. From the text: Furthermore ELC-SK mediated adhesion was abolished in the presence of soluble native ELC as a competitor (FIG. 3A, top row). […] Moreover, radiolabeled ELC was used in a traditional homologous competition assay in the presence of increasing concentrations of unlabeled ELC. […] Taken together, the stalkokine-based adhesion and radiolabeled ligand binding/homologous competition assays indicate that CCR10 is a new chemokine receptor that bound a novel compliment of chemokines.

T1 sequence (P61073 whole entry): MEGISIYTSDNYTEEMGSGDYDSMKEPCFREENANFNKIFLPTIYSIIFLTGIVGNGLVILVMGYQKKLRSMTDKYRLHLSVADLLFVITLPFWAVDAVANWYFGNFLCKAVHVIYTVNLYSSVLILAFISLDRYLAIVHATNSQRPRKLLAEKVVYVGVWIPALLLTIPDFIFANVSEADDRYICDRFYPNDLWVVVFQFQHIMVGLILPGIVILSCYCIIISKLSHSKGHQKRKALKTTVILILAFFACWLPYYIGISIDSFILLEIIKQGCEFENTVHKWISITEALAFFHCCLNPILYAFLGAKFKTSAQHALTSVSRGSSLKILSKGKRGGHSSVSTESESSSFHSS

B1: FK: fractalkine, natural membrane protein with a chemokine domain tethered on a long mucin-like stalk (protein)
chain: QHHGVTKCNITCSKMTSKIPVALLIHYQQNQASCGKRAIILETRQHRLFCADPKEQWVKDAMQHLDRQAAALTRNGGTFEKQIGEVKPRTTPAAGGMDESVVLEPEATGESSSLEPTPSSQEAQRALGTSPELPTGVTGSSGTRLPPTPKAQDGGPVGTELFRVPPVSTAATWQSSAPHQPGPSLWAEAKTSEAPSTQDPSTQASTASSPAPEENAPSEGQRVWGQGQSPRPENSLEREEMGPVPAHTDAFQDWGPGSMAHVSVVPVSSEGTPSREPVASGSWTPKAEEPIHATMDPQRLGVLITPVPDAQA
For the molecule B1, the “Binding to Stalkokine form” value with CXCR4 is recorded as “yes”.

B2: ELC-SK: tethered ligand fusion protein: ELC chemokine domain, human fractalkine mucin stalk, myc/poly-histidine immobilization domain (protein)
chain: GTNDAEDCCLSVTQKPIPGYIVRNFHYLLIKDGCRVPAVVFTTLRGRQLCAPPDQPWVERIIQRLQRTSAKMKRRSSEFGGTFEKQIGEVKPRTTPAAGGMDESVVLEPEATGESSSLEPTPSSQEAQRALGTSPELPTGVTGSSGTRLPPTPKAQDGGPVGTELFRVPPVSTAATWQSSAPHQPGPSLWAEAKTSEAPSTQDPSTQASTASSPAPEENAPSEGQRVWGQGQSPRPENSLEREEMGPVPAHTDAFQDWGPGSMAHVSVVPVSSEGTPSREPVASGSWTPKAEEPIHATMDPQRLGVLITPVPDAQA
modifications: left off: small tags and cut ends
In the case of B2, the “Adhesion of HEK293-CCR10 cells to immobilized stalkokine” value is given as “adhered very well” in the assay with CCR10 [1] and “strong adhesion” with CCR10 [1] (listed as ELC-stalkokine (SK)).

B3: MDC-FRAC: a stalkokine with a fractalkine stalk and an MDC ligand domain (protein)
chain: GPYGANMEDSVCCRDYVRYRLPLRVVKHFYWTSDSCPRPGVVLLTFRDKEICADPRVPWVKMILNKLSQEFGGTFEKQIGEVKPRTTPAAGGMDESVVLEPEATGESSSLEPTPSSQEAQRALGTSPELPTGVTGSSGTRLPPTPKAQDGGPVGTELFRVPPVSTAATWQSSAPHQPGPSLWAEAKTSEAPSTQDPSTQASTASSPAPEENAPSEGQRVWGQGQSPRPENSLEREEMGPVPAHTDAFQDWGPGSMAHVSVVPVSSEGTPSREPVASGSWTPKAEEPIHATMDPQRLGVLITPVPDAQA
modifications: left off: small tags and cut ends
notes: a stalkokine with a fractalkine stalk and an MDC ligand domain
For the molecule B3, the “Calcium influx / calcium signaling” value with CCR4 [2] was “modest influx”; with CCR4 [2] (listed as MDC-Stalkokine), “induction of calcium signaling”. Moreover, in the assay with CCR4 [3], the “Binding to Stalkokine form” value was “bound”. The “Inhibition of binding of MDC or TARC tracer to CEM cells” value (shortened to “Inhibition”) with CCR4 [4] was “significant further decrease”.

B4: MDC: recombinant human chemokine, natural ligand for CCR4 (protein)
chain: GPYGANMEDSVCCRDYVRYRLPLRVVKHFYWTSDSCPRPGVVLLTFRDKEICADPRVPWVKMILNKLSQ
Regarding B4, the “Binding to Stalkokine form” value with CCR4 [3] is given as “yes, yes”. Further, the “Inhibition” value with CCR4 [4] is reported as “maximal level of competition”.

B5: TARC-FRAC: a stalkokine with a fractalkine stalk and an TARC ligand domain (protein)
chain: ARGTNVGRECCLEYFKGAIPLRKLKTWYQTSEDCSRDAIVFVTVQGRAICSDPNNKRVKNAVKYLQSLERSEFGGTFEKQIGEVKPRTTPAAGGMDESVVLEPEATGESSSLEPTPSSQEAQRALGTSPELPTGVTGSSGTRLPPTPKAQDGGPVGTELFRVPPVSTAATWQSSAPHQPGPSLWAEAKTSEAPSTQDPSTQASTASSPAPEENAPSEGQRVWGQGQSPRPENSLEREEMGPVPAHTDAFQDWGPGSMAHVSVVPVSSEGTPSREPVASGSWTPKAEEPIHATMDPQRLGVLITPVPDAQA
modifications: left off: small tags and cut ends
notes: a stalkokine with a fractalkine stalk and an TARC ligand domain
As for B5, the “Calcium influx / calcium signaling” value was “modest influx” in the assay with CCR4 [2] and “induction of calcium signaling” in the assay with CCR4 [2] (listed as TARC-Stalkokine). Further, the “Binding to Stalkokine form” value with CCR4 [3] is given as “bound”. Besides, the “Inhibition” value with CCR4 [4] is “significant further decrease”.

B6: vMIPII: viral chemokine (protein)
chain: GDTLGASWHRPDKCCLGYQKRPLPQVLLSSWYPTSQLCSKPGVIFLTKRGRQVCADKSKDWVKKLMQQLPVTAR
Consider B6, for which the “Binding to Stalkokine form” value with CXCR4 is listed as “yes”. Besides, in the assay with CCR10 [5], the “Affinity of binding to CCR10” value was “lower affinity”.
